Consider 1 molecule from patent US9784749.

Assay [1] addresses r244 rabbit anti-human TnTuORF antiserum. The assay is described as follows: competitive radioimmunoassay with r244 and 125I-TnTuORF(Tyr) tracer.
Assay [2] has the same target. The assay is described as follows: competitive radioimmunoassay, TnTuORF standard against 125I-TnTuORF(Tyr) tracer for r244.

Consider MAPEGWVIVVIS [Synthetic human Troponin T upstream open reading frame (TnTuORF) peptide], for which the Cross reactivity with TnTuORF antiserum (%) in assay [1] came out at 100%. In assay [2], the ED50 stood at 0.458 µg/mL.
